Measurements: PMC5913134, “The IL-33-PIN1-IRAK-M axis is critical for type 2 immunity in IL-33-induced allergic airway inflammation” (Nature Communications, 2018)

Experiments:
[1] = system: PIN1-IRAK-M interaction; experiment: Co-immunoprecipitation of PIN1 and IRAK-M; type: binding; conditions: for PIN1 interaction (CO-IP), IRAK-M constructs: HEK293 cells, after IL-33 treatment
Protocol: Fig. 2 IL-33 induces IRAK-M phosphorylation and binding to PIN1. a GST PIN1 pulldown assay with DC2.4 cell extracts either non-treated or treated with IL-33 (100 ng/ml) or LPS (100ng/ml) for 1 h. […] The cells were washed with fresh medium and treated with 100 ng/ml IL-33 for the indicated times prior to IRAK-M immunoprecipitation. d DC2.4 cells stably expressing IRAK-M were treated with IL-33 and at the indicated time points were subjected to CO-IP using anti-PIN1 antibody and blotted for IRAK-M. e HEK293 cells were transfected with different IRAK-M constructs expressing the N’ terminal domain (aa1-220), the middle portion of the protein (aa220-440) or the C’ terminal domain (aa 440-630), and then treated with IL-33, followed by CO-IP for PIN1. f DC2.4 cells stably expressing IRAK-M were treated with IL-33 and subjected to GST or GST-PIN1 pull-down.
Cells from one 10-cm dish were homogenized in lysis buffer containing 150 mM NaCl, 1% NP-40, 0.5% deoxycholate, 0.1% SDS, 50 mM Tris-HCl (pH 7.7), 1 mM phenylmethylsulfonyl fluoride (PMSF), 1 mM dithiothreitol, and protease inhibitors. Clarified supernatants were incubated with pre incubated immobilized beads rProtein A agarose beads (RepliGen) premixed with PIN1, GFP or IRAK-M antibody or, as a control, IgG overnight at 4 °C. The beads were washed extensively with lysis buffer before elution in SDS sample buffer.

[2] = system: IRAK-M; experiment: IRAK-M protein stability, cycloheximide chase; type: cell-based; conditions: for IRAK-M half-life: cycloheximide chase
Protocol: Fig. 4 PIN1 increases IRAK-M protein stabilization. a After IRAK-M and GFP were coexpressed in WT and PIN1 KO MEFs for 24 h, cells were split equally into 5 dishes. 24 h later cells were treated with cyclohexamide and harvested to monitor IRAK-M, GFP and PIN1 levels at the time points indicated. b Quantification of 3 independent experiments as in a. c WT MEFs stably expressing the TET on inducible short hairpin for PIN1 (shPin1) or pLKO as a control, were expressed with IRAK-M, followed by induction with Doxycycline for 18 h prior to the cyclohexamide chase. d Quantification of 3 independent experiments as in c. e BMDCs from WT or PIN1 KO mice were treated with IL-33 and the levels of IRAK-M were monitored at different time points after induction. f Quantification of 3 independent experiments as in e. g PIN1 KO MEFs were expressed with IRAK-M alone or in combination with PIN1 or its mutants W34A or K63A for 24 h, followed by the cyclohexamide chase to assay IRAK-M stability. h Quantification of 3 independent experiments as in g. i IRAK-M or its different mutants; S110A, S110E and P111A were expressed in WT MEFs, followed by the cyclohexamide chase to assay IRAK-M stability. j Quantification of 3 independent experiments as in i. k IRAK-M or its different mutants were stably expressed in DC2.4 cells, followed by the cyclohexamide chase to monitor IRAK-M stability. l Quantification of 3 independent experiments as in k. The data were analyzed by a Student’s two-tailed t test and the values are reported as mean ± standard errors of the means (SEM). *- statistical significance (P < 0.05), **- significance (P < 0.01)

[3] = system: asthmatic patients; experiment: Segmental allergen (Derp1) challenge in asthmatic patients; type: in vivo, human
From the text: Fig. 7 IRAK-M expression is elevated in asthmatic human samples after Derp1 segmental allergic challenge. a Representative H&E staining and PAS staining of lung biopsies before and after Derp1 segmental challenge, as well as BALF and brush cytospins before and after treatment stained with Giemsa (n = 4). b Cytospin slides of brushing, total BALF cells, BALF CD15 + and CD205 + cells samples were immune stained for IRAK-M. c Quantification of IRAK-M expression in total BALF cells, BALF CD15 + and CD205 + cells samples as in b using Velocity program. d Total BALF cells were immune stained for PIN1 and pS71PIN1 and quantified using Velocity program e. f RNA was extracted from BALF cellular contents and analyzed for the relative expression of Il6, Csf3, Cxcl2 and Ccl5 by qRT-PCR. The data were analyzed by a Student’s two-tailed t test and the values are reported as mean ± standard errors of the means (SEM). *- statistical significance (P < 0.05), **- significance (P < 0.01). Scale bar = 50 µm
For human subject study, non-smokers with a history of mild asthma with an FEV1 greater than 70% of predicted, using only intermittent beta-agonists for treatment, who were between the ages of 18 and 55 were recruited to undergo segmental allergen challenge via bronchoscopy. Participants were selected on the basis of both a positive methacholine PC20 < 8 mg/mL and a positive skin prick test to Dermatophagoides pternyssinus (DerP1). A positive intradermal that yielded a reaction at or below the concentration threshold of 0.1 AU/mL following the methods set forth in Parulekar et al., was also required, although only the DerP1 antigen was used.
After recoding baseline vitals, PO2, FEV1, PEFR, appropriate anesthetic medication was administered. Then, a fiberoptic bronchoscope with bronchoalveolar lavage (BAL) was performed by sequential instillation and removal of 5 aliquots of 50 mL normal saline in the lingula. Brushings and biopsies were taken after the BAL. The bronchoscope was then re-wedged on the contra lateral side (right middle lobe) in a readily identifiable sub-segment. A safety dose (100 × the minimum dose that caused reaction during the intradermal) of 5 mL of allergen in a prefilled syringe was instilled followed by 5 mL of air and the wedge was maintained for 5 minutes. Subject’s safety parameters were assessed after administration of the sub-threshold allergen dose. If the investigator determined the subject had well tolerated the safety dose, full dose of allergen (1000 × the minimum dose that caused reaction during the intradermal) in a pre-filled syringe was administered followed by 5 ml of air and the wedge was maintained for 5 min. Antigen lot to lot consistency was maintained between the participants intradermal skin test and segmental challenge. Participants were monitored for safety until 2 h after the procedure. After allergen challenge, if the subject developed systemic allergic reaction such as diffuse urticaria, angioedema, stridor, hypotension, syncope or any other serious adverse event, subject would be dropped from the study and only be followed up for safety reasons. Participants were not be allowed to leave for home until their condition was stable as assessed by the study physician.
Pre-bronchoscopy and bronchoscopy eligibility procedures were followed as detailed above prior to 2nd bronchoscopy. Specimens taken were BAL first, followed by brushings, and finally biopsies. These were taken where the segmental allergen challenge was placed (right middle lobe). Drug and post-procedure follow up and monitoring were followed as detailed above.

B1: S110A: IRAK-M mutant, Ser110 substituted to Ala (protein)
chain: MAGNCGARGALSAHTLLFDLPPALLGELCAVLDSCDGALGWRGLAERLSSSWLDVRHIEKYVDQGKSGTRELLWSWAQKNKTIGDLLQVLQEMGHRRAIHLITNYGAVLAPSEKSYQEGGFPNILFKETANVTVDNVLIPEHNEKGILLKSSISFQNIIEGTRNFHKDFLIGEGEIFEVYRVEIQNLTYAVKLFKQEKKMQCKKHWKRFLSELEVLLLFHHPNILELAAYFTETEKFCLIYPYMRNGTLFDRLQCVGDTAPLPWHIRIGILIGISKAIHYLHNVQPCSVICGSISSANILLDDQFQPKLTDFAMAHFRSHLEHQSCTINMTSSSSKHLWYMPEEYIRQGKLSIKTDVYSFGIVIMEVLTGCRVVLDDPKHIQLRDLLRELMEKRGLDSCLSFLDKKVPPCPRNFSAKLFCLAGRCAATRAKLRPSMDEVLNTLESTQASLYFAEDPPTSLKSFRCPSPLFLENVPSIPVEDDESQNNNLLPSDEGLRIDRMTQKTPFECSQSEVMFLSLDKKPESKRNEEACNMPSSSCEESWFPKYIVPSQDLRPYKVNIDPSSEAPGHSCRSRPVESSCSSKFSWDEYEQYKKE
- PIN1 interaction (CO-IP), IRAK-M constructs [1]: abolished the PIN1-IRAK-M interaction
- decrease of IRAK-M protein stability ([2]; mutant IRAK-M, WT MEFs, reproduced in DC2.4 cells): ~ 50%

B2: IRAK-M N-terminal domain: N-terminal (aa 1-220) of IRAK-M (protein, UniProt Q8K4B2 1-220, looked up, fragment)
chain: MAGRCGARGALSPQLLLFDLPPALLGELCGILDSCDGPLGWRGLAERLSNSWLDVRHIEKYVNQGKSGTRELLWSWAQKNKTIGDLLEVLQDMGHQRAIHLIINYGVSWTPSVQTHHELPFPSFPPEVKHACRENDPGPLEPANVTVDNVLVPEHNEKGTLQKTPISFQSILEGTKHFHKDFLIGEGEIFEVYRVDIRNQAYAVKLFKQEKKMQLKKHWK
- PIN1 interaction (CO-IP), IRAK-M constructs [1]: mainly evident

B3: PIN1: peptidyl-prolyl cis-trans isomerase PIN1 (protein, UniProt Q9QUR7 1-165, looked up)
Peptidyl-prolyl cis-trans …: MADEEKLPPGWEKRMSRSSGRVYYFNHITNASQWERPSGGSTVGGSSKNGQGEPAKVRCSHLLVKHSQSRRPSSWRQEKITRSKEEALELINGYIQKIKSGEEDFESLASQFSDCSSAKARGDLGPFSRGQMQKPFEDASFALRTGEMSGPVFTDSGIHIILRTE
- increase in IRAK-M half-life ([2]; PIN1-deficient MEFs (text PIN1 KD, Fig. 4g legend PIN1 KO) co-expressing IRAK-M with PIN1 or mutant): more than 50%

B4: IRAK-M: Interleukin receptor associated kinase M (protein, UniProt Q8K4B2 1-609, looked up)
Interleukin-1 …: MAGRCGARGALSPQLLLFDLPPALLGELCGILDSCDGPLGWRGLAERLSNSWLDVRHIEKYVNQGKSGTRELLWSWAQKNKTIGDLLEVLQDMGHQRAIHLIINYGVSWTPSVQTHHELPFPSFPPEVKHACRENDPGPLEPANVTVDNVLVPEHNEKGTLQKTPISFQSILEGTKHFHKDFLIGEGEIFEVYRVDIRNQAYAVKLFKQEKKMQLKKHWKRFLSELEVLLLFRHPHILELAAYFTETEKLCLVYPYMSNGTLFDRLQCTNGTTPLSWHVRISVLIGIAKAIQYLHNTQPCAVICGNVSSANILLDDQLQPKLTDFAAAHFRPNLEQQSSTINMTGGGRKHLWYMPEEYIRQGRLSVKTDVYSFGIVIMEVLTGCKVVLDDPKHVQLRDLLMELMEKRGLDSCLSFLDRKIPPCPRNFSAKLFSLAGRCVATKAKLRPTMDEVLSSLESTQPSLYFAEDPPTSLKSFRCPSPLFLDNVPSIPVEDDENQNNHSVPPKEVLGTDRVTQKTPFECSQSEVTFLGLDRNRGNRGSEADCNVPSSSHEECWSPELVAPSQDLSPTVISLGSSWEVPGHSYGSKPMEKRCSSGLFCSEHEQSKKQ
- PIN1 interaction (CO-IP), IRAK-M mutants ([1]; stably expressing DC2.4 cells, with/without IL-33): evident only after IL-33 stimulation
- IRAK-M half-life ([2]; PIN1 KO MEFs): < 3 h
- IRAK-M half-life ([2]; WT MEFs): ~ 6 h
- reduction of IRAK-M half-life ([2]; inducible PIN1 knock down (KD), MEFs): more than 50%

B5: Derp1: segmental allergen of Dermatophagoides pteronyssinus (protein, UniProt P08176 99-320, looked up)
Peptidase 1: TNACSINGNAPAEIDLRQMRTVTPIRMQGGCGSCWAFSGVAATESAYLAYRNQSLDLAEQELVDCASQHGCHGDTIPRGIEYIQHNGVVQESYYRYVAREQSCRRPNAQRFGISNYCQIYPPNVNKIREALAQTHSAIAVIIGIKDLDAFRHYDGRTIIQRDNGYQPNYHAVNIVGYSNAQGVDYWIVRNSWDTNWGDNGYGYFAANIDLMMIEEYPYVVIL
- immunological reaction (granulocyte infiltration, tissue remodeling) ([3]; asthmatic patients, segmental Derp1, n = 4): massive immunological reaction
- IRAK-M expression in bronchial epithelial cells ([3]; biopsies, before and after Derp1 challenge): elevated
- IRAK-M protein expression in lung brush samples ([3]; brush cytospins, after Derp1 challenge): greatly elevated
- IRAK-M expression in CD15+ and CD205+ BALF cells ([3]; sorted eosinophils (CD15+) and dendritic/monocytes (CD205+), after Derp1): highly elevated
- PIN1 protein expression ([3]; total BALF cytospins, Derp1): did not seem to change
- pS71 PIN1 phosphorylation ([3]; total BALF cytospins, Derp1): decrease in pS71 phosphorylation
- IRAK-M expression in total BALF cells ([3]; total BALF, after Derp1 challenge): highly elevated
